Experimental data: publication PMC7886051, “Redesigning the Molecular Choreography to Prevent Hydroxylation in Germacradien-11-ol Synthase Catalysis” (ACS Catalysis, 2021)
Changes are numbered by the printed parent chain. Names and notes keep the numbering of the source.

B1: Gd11olS (germacradien-11-ol synthase; N-terminal domain of geosmin synthase) (Streptomyces coelicolor A3(2); V187A) (protein)
chain: MTQQPFQLPHFYLPHPARLNPHLDEARAHSTTWAREMGMLEGSGVWEQSDLEAHDYGLLCAYTHPDCDGPALSLITDWYVWVFFFDDHFLEKYKRSQDRLAGKAHLDRLPLFMPLDDAAGMPEPRNPVEAGLADLWTRTVPAMSADWRRRFAVATEHLLNESMWELSNINEGRVANPVEYIEMRRKAGGAPWSAGLVEYATAEVPAAVAGTRPLRVLMETFSDAVHLRNDLFSYQREVEDEGELSNGVLVLETFFGCTTQEAADLVNDVLTSRLHQFEHTAFTEVPAVALEKGLTPLEVAAVGAYTKGLQDWQSGGHEWHMRSSRYMNKGERPLAGWQALTGPGTSAADVGALLADAVAQRARSYT
notes: N-terminal domain, residues 1-366 of geosmin synthase; codon-optimized synthetic gene in pET28a, expressed in E. coli, purified to homogeneity; tag details in supplement
B2: Gd11olS (germacradien-11-ol synthase; N-terminal domain of geosmin synthase) (Streptomyces coelicolor A3(2); G188S) (protein)
chain: B1 chain with A187V, G188S
notes: as for B1
B3: Gd11olS (germacradien-11-ol synthase; N-terminal domain of geosmin synthase) (Streptomyces coelicolor A3(2); W312F) (protein)
chain: B1 chain with A187V, W312F
notes: as for B1
B4: Gd11olS (germacradien-11-ol synthase; N-terminal domain of geosmin synthase) (Streptomyces coelicolor A3(2)) (protein)
chain: B1 chain with A187V
notes: as for B1
B5: Gd11olS (germacradien-11-ol synthase; N-terminal domain of geosmin synthase) (Streptomyces coelicolor A3(2); H320F) (protein)
chain: B1 chain with A187V, H320F
notes: as for B1
B6: Gd11olS (germacradien-11-ol synthase; N-terminal domain of geosmin synthase) (Streptomyces coelicolor A3(2); Q313A) (protein)
chain: B1 chain with A187V, Q313A
notes: as for B1
B7: Gd11olS (germacradien-11-ol synthase; N-terminal domain of geosmin synthase) (Streptomyces coelicolor A3(2); Q313N) (protein)
chain: B1 chain with A187V, Q313N
notes: as for B1
B8: Gd11olS (germacradien-11-ol synthase; N-terminal domain of geosmin synthase) (Streptomyces coelicolor A3(2); H320A) (protein)
chain: B1 chain with A187V, H320A
notes: as for B1
B9: Gd11olS (germacradien-11-ol synthase; N-terminal domain of geosmin synthase) (Streptomyces coelicolor A3(2); R228V) (protein)
chain: B1 chain with A187V, R228V
notes: as for B1
B10: Gd11olS (germacradien-11-ol synthase; N-terminal domain of geosmin synthase) (Streptomyces coelicolor A3(2); W312A) (protein)
chain: B1 chain with A187V, W312A
notes: as for B1
B11: Gd11olS (germacradien-11-ol synthase; N-terminal domain of geosmin synthase) (Streptomyces coelicolor A3(2); G188A) (protein)
chain: B1 chain with A187V, G188A
notes: as for B1

substrate: CC(C)=CCC/C(C)=C/CC/C(C)=C/CO[P@@](=O)(O)OP(=O)(O)O; test: steady-state kinetics of purified enzyme (details in supplement); format: biochemical, Streptomyces coelicolor; conditions: Mg2+-dependent enzyme; assay conditions in supplement
Text: steady-state kinetics of purified enzyme (details in supplement) on Gd11olS (germacradien-11-ol synthase; N-terminal domain of geosmin synthase)

Row | Protein | Km [µM] | kcat [s⁻¹]
1 | B1 | 0.3 ± 0.06 | 0.000194 ± 1e-07
2 | B2 | 5.7 ± 0.9 | 4.08e-05 ± 2e-06
3 | B3 | 0.9 ± 0.09 | 0.000255 ± 6e-07
4 | B4 | 0.5 ± 0.08 | 0.000524 ± 2e-07
5 | B5 | 1.8 ± 0.5 | 2.3e-05 ± 2e-07
6 | B6 | 1.10 ± 0.14 | 6.9e-05 ± 2e-07
7 | B7 | 0.5 ± 0.07 | 5.02e-05 ± 1e-07
8 | B8 | 1.12 ± 0.10 | 3.8e-05 ± 1e-07
9 | B9 | 0.8 ± 0.10 | 0.0001814 ± 4e-07
10 | B10 | 0.4 ± 0.07 | 4.02e-05 ± 1e-07
11 | B11 | 3.8 ± 1.5 | 3.7e-05 ± 5e-06
